Reference: patent US20220395553A1 (COHBAR, published 2022)
Square brackets hold non-standard residues; d marks the D form. Ends that are not written are not given here.

Experiments:
[1] = target: T1, SNAP tagged-CXC4 receptor labeled with terbium (Tag-lite CXCR4 cells, HEK293) (UniProt P61073 1-352, SNAP tag labeled with terbium fluorescent dye); assay: HTRF competition on Tag-lite CXCR4 HEK293 cells; competitor labelled CXCL12
T1 construct: whole, on cells; Bought frozen cells (PerkinElmer-CisBio), HEK293 transiently expressing the receptor; also called terbium labeled CXCR receptor
T1 sequence (P61073 whole entry): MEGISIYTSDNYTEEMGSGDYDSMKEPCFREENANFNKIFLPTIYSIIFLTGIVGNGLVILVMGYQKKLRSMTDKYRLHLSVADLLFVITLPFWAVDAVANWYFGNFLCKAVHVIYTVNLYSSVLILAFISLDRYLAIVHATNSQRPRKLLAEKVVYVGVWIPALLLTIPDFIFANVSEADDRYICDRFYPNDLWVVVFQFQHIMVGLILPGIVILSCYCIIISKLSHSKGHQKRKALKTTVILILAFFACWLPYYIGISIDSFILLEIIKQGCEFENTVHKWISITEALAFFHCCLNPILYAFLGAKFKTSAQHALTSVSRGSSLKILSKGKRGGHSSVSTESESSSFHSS
Experimental: Peptides were initially prepared as 1 mM stock in H₂O and tested at a final concentration of 400 nM. Following the manufacture's protocol, a frozen aliquot of Tag-lite CXCR4 cells was thawed and immediately seeded onto 384-well plates in TLB. Immediately following the addition of cells, 400 nM peptide (final concentration) in TLB was added to the appropriate well. […] The plates were covered in aluminum foil and left at room temperature for 3 hours. Following the 3 hour incubation period, the plates were removed from the incubator and fluorescence measured using a Cytation 1 plate reader using a HTRF filter cube ([…]; BioTek; Winooski, Vt.).

[2] = target: ProLink tagged human CXCR4 (C2C12 CXCR4 β-Arrestin cell line) (human, UniProt P61073 1-352); assay: cell-based or functional assay
ProLink tagged human CXCR4 (C2C12 CXCR4 β-Arrestin cell line), sequence (P61073 whole entry): as above

[3] = target: CXCR4 on cultured U937 and Jurkat cells (human, UniProt P61073 1-352); assay: cell-based or functional assay
CXCR4 on cultured U937 and Jurkat cells, sequence (P61073 whole entry): as above

Row | Binder | Percent Inhibition of CXCR4/CXCL12 Binding (400 nM peptide) [1] [%] | IC50 for Inhibition of CXCR4 Activation (β-Arrestin recruitment) [2] [nM] | Percent Inhibition of CXCR4/CXCL12 Induced p-MEK (100 nM Test Article) [3] [%] | Percent Inhibition of CXCR4/CXCL12 Induced p-MEK (1 µM Test Article) [3] [%]
1 | RYHHSVRSSLRPYTK [SEQ ID NO: 11] | -9 | 175 |  | 
2 | LERYQHSVRSSLRPYTK [SEQ ID NO: 48] | 13 | 53 |  | 
3 | LERYHHSVRSSLR [SEQ ID NO: 21] | 20 | 16 |  | 
4 | LERYHHS[dA]RTSLRPYTK [SEQ ID NO: 76] | 75 | 6 | 5 | 44
5 | LRRYHQSVRSSLRPYTK [SEQ ID NO: 50] | -5 | 121 |  | 
6 | LERYHQSVRSSLRPYTK [SEQ ID NO: 51] | -2 | 134 |  | 
7 | LERYHHS[dA]RSTLRPYTK [SEQ ID NO: 77] | 77 | 4 | 7 | 68
8 | YHHSVRSSLRPYTK [SEQ ID NO: 12] | -13 | > 1000 |  | 
9 | LRRYQHSVRSSLRPYTK [SEQ ID NO: 47] | 5 | 11 |  | 
10 | LRRYHHS[dA]RSSLEPYTK [SEQ ID NO: 65] | -5 | 40 |  | 
11 | LREYHHSVRSSLRPYTK [SEQ ID NO: 31] | -16 | > 1000 |  | 
12 | LERYHHSVRSSL [SEQ ID NO: 22] | 14 | 17 |  | 
13 | LRRYHNSVRSSLRPYTK [SEQ ID NO: 44] | 0 | 32 |  | 
14 | LRRYHHSVRSSLRPY [SEQ ID NO: 25] | 0 | 51 |  | 
15 | LERYHHT[dA]RSSLRPYTK [SEQ ID NO: 40] |  | 5 | 33 | 94
16 | LRRYHHSVRSSLRPYT [SEQ ID NO: 24] | 8 | 102 |  | 
17 | LRRYHHS[dA]ESSLRPYTK [SEQ ID NO: 64] | -6 | 14 |  | 
18 | RRYHHSVRSSLRPYTK [SEQ ID NO: 10] | -8 | 103 |  | 
19 | LRRYHHSVRSS [SEQ ID NO: 29] | 14 | 46 |  | 
20 | LERYQHS[dA]RSSLRPYTK [SEQ ID NO: 49] | 20 | 66 |  | 
21 | LERYHHSVRSSLRP [SEQ ID NO: 20] | 37 | 37 |  | 

Row | Binder | Percent Inhibition of CXCR4/CXCL12 Binding (400 nM peptide) [1] [%] | IC50 for Inhibition of CXCR4 Activation (β-Arrestin recruitment) [2] [nM] | Percent Inhibition of CXCR4/CXCL12 Induced p-MEK (100 nM Test Article) [3] [%] | Percent Inhibition of CXCR4/CXCL12 Induced p-MEK (1 µM Test Article) [3] [%]
22 | LERYNHSVRSSLRPYTK [SEQ ID NO: 42] | 32 | 22 |  | 
23 | LERYHQS[dA]RSSLRPYTK [SEQ ID NO: 52] | -2 | 121 |  | 
24 | LRRYHHS[dA]RSSLDPYTK [SEQ ID NO: 69] | -5 | 63 |  | 
25 | LERYHHSVRSSLRPY [SEQ ID NO: 19] | 44 | 19 |  | 
26 | LRRYHHSVRSSLEPYTK [SEQ ID NO: 63] | 9 | 14 |  | 
27 | LRRYHHSVESSLRPYTK [SEQ ID NO: 62] | 4 | 64 |  | 
28 | LRRYHHSVRSSLRP [SEQ ID NO: 26] | 1 | 67 |  | 
29 | LRRYHHS[dA]DSSLRPYTK [SEQ ID NO: 68] | -10 | 13 |  | 
30 | LRRYHHS[dA]RSSLRPYTK [SEQ ID NO: 6] | -10 | 8 |  | 
31 | LREYHHS[dA]RSSLRPYTK [SEQ ID NO: 32] | -18 | > 1000 |  | 
32 | HSVRSSLRPYTK [SEQ ID NO: 14] | -15 | > 1000 |  | 
33 | LRRYHHSVRSSL [SEQ ID NO: 28] | 12 | 4 |  | 
34 | HHSVRSSLRPYTK [SEQ ID NO: 13] | -10 | > 1000 |  | 
35 | LERYHHS[dA]RSSLRPYSK [SEQ ID NO: 78] | 72 | 12 | 29 | 46
36 | LRDYHHS[dA]RSSLRPYTK [SEQ ID NO: 37] | -14 | > 1000 |  | 
37 | SVRSSLRPYTK [SEQ ID NO: 15] | -11 | > 1000 |  | 
38 | LERYHNSVRSSLRPYTK [SEQ ID NO: 45] | 1 | 121 |  | 
39 | LRRYHHSVRSSLR [SEQ ID NO: 27] | 10 | 34 |  | 
40 | LRRYNHSVRSSLRPYTK [SEQ ID NO: 41] | -2 | 4 |  | 
41 | LERYHHSVRSS [SEQ ID NO: 23] | 23 | 28 |  | 
42 | LERYHNS[dA]RSSLRPYTK [SEQ ID NO: 46] | -4 | 187 |  | 
